The values below come from US20260007756A1, “COMPOUND AND USE THEREOF” (COHERENT BIOPHARMA (SUZHOU) LIMITED, priority 2022, published 2026).

pIC50: −log10 of the molar value. ≈ marks a conversion by molar mass, not a printed value. Like-named read-outs stand apart in the source and are kept apart here.

For one series, the system named is MDA-MB-231-PSMA. As to conditions: 72 h, CCK-8. As for the experimental part: (§1) Major reagents: 1640 folic acid-free medium, fetal bovine serum, penicillin-streptomycin solution, L-glutamine, and CCK8.
(§2) Cells were prepared in advance, trypsinized, collected, counted, diluted to 2×10^4 cells/mL in a complete cell culture medium, and plated in 96-well plates. The diluted cell suspension was added at 100 μL/well, and negative and blank control wells were set on each plate. The 96-well plates with the added cells were incubated overnight at 37° C. in a 5% CO2 incubator.
(§3) Samples were serially diluted with medium (serially 5-fold diluted from 10 μM) to 9 concentrations. The medium in the plates was discarded, and the drug solutions were added at 100 μL per well to a 96-well plate in triplicate. Negative and blank controls were set. The plates were incubated at 37° C. for 72 h in a 5% CO2 incubator.
(§4) A CCK-8 developing solution was added at 10 μL/well (10% of the liquid volume in the wells). The plates were incubated at 37° C. for a proper time (the OD value was controlled within the range of 1.0-2.5 as possible). The plate covers were removed, and the 96-well plates were loaded on a microplate reader (Molecular Devices SpectraMax iD5) to read the measurement at 450 nm.
(§5) Four-parameter curves were fitted using GraphPad Prism 8.0.2 to give IC50 values.

The test system of another series is MDA-MB-231-FOLR1. As to conditions: MDA-MB-231-FOLR1, 72 h, CCK-8. Here is the method: as §1, §2, §3, §4, §5
For a further series, the system named is 293T-PSMA. To be noted: 72 h, CCK-8. Here is the method: as §1, §2, §3, §4, §5
The subject of another series is 22RV1. As to conditions: 22RV1 (PSMA overexpression), 72 h, CCK-8. As for the experimental part:
as §1, §2, §3, §4, §5

Another series concerns C4-2. As to conditions: C4-2 (PSMA overexpression), 72 h, CCK-8. As for the experimental part: as §1, §2, §3, §4, §5
The test system of series [1] is LNCaP. As to conditions: LNCap (PSMA overexpression), 72 h, CCK-8. Here is the method: as §1, §2, §3, §4, §5
In series [2] the test system is human prostate cancer 22RV1 cell subcutaneous xenograft tumor. Nature of the series: Pharmacodynamic assessment, 22RV1 xenograft model. The class given is in vivo. The source says:
Objective: Pre-clinical pharmacodynamic study of compounds for treating BALB/c nude mouse model with 22RV1 cell subcutaneous xenograft tumor (overexpressing PSMA).
Procedures: 22RV1 tumor mass was grafted subcutaneously at the right back of the mice, and the mice were randomized after the mean tumor volume was 150 mm^3. After administration, the animals were monitored daily for health conditions and death, and the routine examinations included observation of the effect on tumor growth and the effect of the treatment on the daily performance of the animals, such as behavioral activities, food and water intake, weight changes (measured once every other day), appearance, or other abnormal conditions. Whether the tumor growth was inhibited or delayed or the tumor was cured was also observed. The tumor volume was measured periodically. The tumor volume was calculated using the following formula: V=1/2×(a×b^2), where a and b denote the long diameter and short diameter of the tumor, respectively.

For another series, the target named is cathepsin B-human liver (Homo sapiens, UniProt P07858). Nature of the series: Cathepsin B cleavage study (HPLC). To be noted: 37° C. The arrangement: cathepsin B-human liver (source: Sigma); purchased Sigma; host or cells: human liver (tissue-derived, as the product name says). The class given is in vitro ADME. As for the experimental part:
Procedures: The conjugate compounds were dissolved in acetonitrile-water (1:1, containing 0.1% TFA) to prepare 1 mg/mL stock solutions; 30 μL of the 1 mg/mL stock solution was added to 570 μL of 50 mM NaOAc (containing 1 mM EDTA and 10 mM cysteine), and the mixture was mixed well; 7 μL of cathepsin B (0.05 U/μL) was added, and the mixture was gently mixed evenly; the reaction system was transferred into a 37° C. thermostat for 0, 1, 2, 4, or 8 h of incubation; samples were taken at each time point for HPLC analysis.

For series [3], the system named is human prostate cancer C4-2 cell subcutaneous xenograft tumor. Nature of the series: Pharmacodynamic assessment, C4-2 xenograft model. The class given is in vivo, NCG mouse. As to conditions: 12.5 mg/kg i.v biw×3, day 23 after grouping. The source says: Objective: Pre-clinical assessment of the efficacy of compounds for treating NCG mouse model with C4-2 cell subcutaneous xenograft tumor (overexpressing PSMA).
Procedures: C4-2 cells were subcutaneously grafted at the right back of the mice, and the mice were randomized when the mean tumor volume reached 100-150 mm^3. After the administration, the routine monitoring included the effect on tumor growth and the effect of treatment on the normal behavior of the animals, specifically the activity, food and water intake, weight gain or loss, the eyes, the hair, and other abnormal conditions. Clinical symptoms observed during the study were recorded in the raw data. After the administration was started, the body weight and tumor size of the mice were measured periodically. The tumor volume was calculated using the following formula: V=1/2×(a×b^2), where a and b denote the long diameter and short diameter of the tumor, respectively.

The nature of another series: Plasma stability study 1. The class given is in vitro ADME. To be noted: mouse plasma, 37° C. As for the experimental part:
Procedures: The conjugate compounds were dissolved in acetonitrile-water (1:1) or acetonitrile-water (1:1, containing 0.1% TFA) to prepare 1 mg/mL stock solutions; 10 μL of the 1 mg/mL stock solution was added to 90 μL of plasma, and the mixture was gently mixed well. The plasma drug samples were shaken and incubated in a 37° C. thermostat for 0, 0.5, 1, 2, 4, 6, or 24 h; at the time points, the samples were taken out and 300 μL of methanol solution (containing 10 ng/ml of terfenadine) was added for protein precipitation; the mixture was centrifuged (12 min, 4° C., 12000 rpm) and the supernatant was collected, and preserved in a −80° C. refrigerator; after collection, the samples were loaded for LC-MS analysis.

A further series can be described thus: Solubility study in PBS. It is filed as physicochemical. To be noted: aqueous buffer, thermodynamic from solid; PBS (pH 7.2 to 7.4); read-out: Solubility, concentration. As for the experimental part: The mixture was vortexed for 2 min until the solid was dissolved. The solubility was calculated as: C=m/V, C: concentration, m: sample weight, V: PBS total volume.

Series [4] relates to LNCaP. Nature of the series: Expansion inhibition of tumor cells (Example 10, CCK-8). To be noted: Homo sapiens, LNCap (PSMA overexpression), 72 h. It is filed as cell-based. As for the experimental part:
Samples were serially diluted with medium (serially 5-fold diluted from 10 μM) to 9 concentrations. […] Negative and blank controls were set.
as §4

The mark [5] stands for this setting: 12.5 mg/kg iv biw×3, day 31 after grouping.

With `CC[C@@H]1C(=O)N(C)c2cnc(Nc3ccc(-c4cn(C5CCC(N(CCOCCC#Cc6cccc7c6CN(C6CCC(=O)NC6=O)C7=O)C(=O)OCc6ccc(NC(=O)[C@H](CCCNC(N)=O)NC(=O)[C@H](Cc7ccccc7)NC(=O)CCCCCN7C(=O)CC(SC[C@H](NC(=O)[C@H](CCCCN)NC(=O)[C@H](CC(=O)O)NC(=O)[C@H](CC(=O)O)NC(=O)Cc8ccc(CNC(=O)NCCCC[C@H](NC(=O)N[C@@H](CCC(=O)O)C(=O)O)C(=O)O)cc8)C(=O)N[C@@H](CCCCNC(=O)CC[C@H](NC(=O)c8ccc(NCc9cnc%10[nH]c(N)nc(=O)c%10n9)cc8)C(=O)O)C(N)=O)C7=O)cc6)CC5)nn4)cc3OC)nc2N1C1CCCC1` (stereo partly shown) [CR20293], the pIC50 – broadly, the IC50 on a negative log10 scale, so that one unit is a factor of ten – was 7.15 with MDA-MB-231-PSMA; 7.03 with MDA-MB-231-FOLR1; 5.49 with 293T-PSMA; 7.78 in the series on 22RV1; 7.11 in the series on C4-2; 7.42 in the series on LNCaP [1]. Further, the Mean tumor volume was 46.32 mm^3 in series [2] (setting [5]) and 778.70 mm^3 in series [3]. The figures for the inhibition of tumour growth (TGI) in [2] (setting [5]) and in series [3] were 97.51% and 55.47%, respectively. Besides, the “Tolerability (body weight, death)” value in series [2] (tumor-bearing BALB/c nude mice, during the study) was “well tolerated”. Besides, the “CR20274 release rate of conjugate compounds after cleavage” value was 0% in the series with cathepsin B-human liver (0 h); 17% in the series with cathepsin B-human liver (1 h); 38% with cathepsin B-human liver (2 h); 59% in the series with cathepsin B-human liver (4 h); 64% with cathepsin B-human liver (8 h). Besides, the “Principal component residue of conjugate compounds after cleavage” value in the series with cathepsin B-human liver (0 h) was determined as 100%; in the series with cathepsin B-human liver (1 h), 76%; in the series with cathepsin B-human liver (2 h), 46%; with cathepsin B-human liver (4 h) it was 27%; in the series with cathepsin B-human liver (8 h), 7%. For the same compound, the “CR20274 release rate of compounds in plasma stability study” value in the series “Plasma stability study 1” (0 h) is recorded as 0.00%; in the series “Plasma stability study 1” (0.5 h) it was 0.17%; in “Plasma stability study 1” (1 h), 0.32%; in “Plasma stability study 1” (2 h), 0.52%; in “Plasma stability study 1” (4 h) it was 0.67%; in the series “Plasma stability study 1” (6 h), 0.95%. In “Plasma stability study 1” (24 h), the “CR20274 release rate of compounds in plasma stability study” value came to 3.38%. In “Plasma stability study 1” (0 h), the “Principal component residue of compounds in plasma stability study” value amounted to 83.13%. For the same compound, in the series “Plasma stability study 1” (0.5 h, read-out: Principal component residue of compounds in plasma stability study), the remaining at 0.5 h, 100 μg/mL was 75.6%. The remaining at 1 h, 100 μg/mL in the series “Plasma stability study 1” (1 h, read-out: Principal component residue of compounds in plasma stability study) came to 75.8%. Also, in the series “Plasma stability study 1” (2 h, read-out: Principal component residue of compounds in plasma stability study), the remaining at 2 h, 100 μg/mL was determined as 67.8%. For the same compound, the remaining at 4 h, 100 μg/mL in the series “Plasma stability study 1” (4 h, read-out: Principal component residue of compounds in plasma stability study) stood at 69.8%. For the same compound, the remaining at 6 h, 100 μg/mL in “Plasma stability study 1” (6 h, read-out: Principal component residue of compounds in plasma stability study) worked out at 70.5%. Besides, in “Plasma stability study 1” (24 h, read-out: Principal component residue of compounds in plasma stability study), the remaining at 24 h, 100 μg/mL was determined as 45.4%. In addition, the solubility at 2 min in “Solubility study in PBS” came to 20.6 mg/mL (≈ 6.75 mM).
`Cc1ncsc1-c1ccc(CNC(=O)C2CC(O)CN2C(=O)C(NC(=O)COCC(=O)NC2(C(=O)NCCCn3cc(-c4ccc(OC(F)(F)F)cc4)c4cc(CN5CCN(Cc6c(Cl)cccc6Cl)CC5)ccc43)CCNCC2)C(C)(C)C)cc1` (stereo not shown) [CR202CC]: in the series on LNCaP [4], the negative logarithm of the IC50 (pIC50) is 9.52.
